# Test results from patent publication US9416162B2, “Peptides having reduced toxicity that stimulate cholesterol efflux” (The Regents of the University of California, priority 2013, dated 2016).
# “Also recorded” adds a separate entry of the source. Non-standard residues stand in square brackets, D forms with d. No end group written: not given here. Cit = NC(=O)NCCC[C@H](N)C(=O)O
# Columns and labels:
# ABCG1 = target: T1, ABCG1 (Homo sapiens, UniProt P45844); assay: ABCG1 mediated cholesterol efflux from BHK cells stably transfected with ABCG1; type: cell-based; conditions: BHK cells ABCG1 vs. mock transfected, 50 μg peptide/ml serum-free medium
# T1 construct: expressed in transfected cells; host or cells: BHK cells, stably transfected
# Experimental: To further evaluate potential anti-atherogenic mechanisms of CS6253, BHK cells stably transfected with ABCG1 and mock-transfected control cells were labeled with [3H]cholesterol and used in efflux experiments. The citrulline form of LeuATI-5261 (CS6253) lipidated with POPC and ATI-5261 were used as cholesterol efflux acceptors at 50 μg peptide/ml serum-free medium. Panel A—Time-course for ABCG1 mediated cholesterol efflux from cells to lipid-free CS6253 peptide or CS6253:POPC complexes. […] Panel B—Comparison between CS6253 and ATI-5261 in mediating cellular cholesterol efflux via ABCG1. [3H]cholesterol labeled BHK cells (ABCG1 vs. mock transfected) were incubated with either lipid-free peptide or peptides formulated with POPC.
# ABCA1 [1] = target: T2, ABCA1 (Mus musculus, UniProt P41233); assay: ABCA1-dependent [3H]cholesterol efflux from J774 macrophages with and without cAMP; type: cell-based
# T2 construct: treated (18 h) with a cAMP analog to induce ABCA1 protein expression; endogenous in cells; host or cells: J774 macrophages
# T2 sequence (P41233 whole entry): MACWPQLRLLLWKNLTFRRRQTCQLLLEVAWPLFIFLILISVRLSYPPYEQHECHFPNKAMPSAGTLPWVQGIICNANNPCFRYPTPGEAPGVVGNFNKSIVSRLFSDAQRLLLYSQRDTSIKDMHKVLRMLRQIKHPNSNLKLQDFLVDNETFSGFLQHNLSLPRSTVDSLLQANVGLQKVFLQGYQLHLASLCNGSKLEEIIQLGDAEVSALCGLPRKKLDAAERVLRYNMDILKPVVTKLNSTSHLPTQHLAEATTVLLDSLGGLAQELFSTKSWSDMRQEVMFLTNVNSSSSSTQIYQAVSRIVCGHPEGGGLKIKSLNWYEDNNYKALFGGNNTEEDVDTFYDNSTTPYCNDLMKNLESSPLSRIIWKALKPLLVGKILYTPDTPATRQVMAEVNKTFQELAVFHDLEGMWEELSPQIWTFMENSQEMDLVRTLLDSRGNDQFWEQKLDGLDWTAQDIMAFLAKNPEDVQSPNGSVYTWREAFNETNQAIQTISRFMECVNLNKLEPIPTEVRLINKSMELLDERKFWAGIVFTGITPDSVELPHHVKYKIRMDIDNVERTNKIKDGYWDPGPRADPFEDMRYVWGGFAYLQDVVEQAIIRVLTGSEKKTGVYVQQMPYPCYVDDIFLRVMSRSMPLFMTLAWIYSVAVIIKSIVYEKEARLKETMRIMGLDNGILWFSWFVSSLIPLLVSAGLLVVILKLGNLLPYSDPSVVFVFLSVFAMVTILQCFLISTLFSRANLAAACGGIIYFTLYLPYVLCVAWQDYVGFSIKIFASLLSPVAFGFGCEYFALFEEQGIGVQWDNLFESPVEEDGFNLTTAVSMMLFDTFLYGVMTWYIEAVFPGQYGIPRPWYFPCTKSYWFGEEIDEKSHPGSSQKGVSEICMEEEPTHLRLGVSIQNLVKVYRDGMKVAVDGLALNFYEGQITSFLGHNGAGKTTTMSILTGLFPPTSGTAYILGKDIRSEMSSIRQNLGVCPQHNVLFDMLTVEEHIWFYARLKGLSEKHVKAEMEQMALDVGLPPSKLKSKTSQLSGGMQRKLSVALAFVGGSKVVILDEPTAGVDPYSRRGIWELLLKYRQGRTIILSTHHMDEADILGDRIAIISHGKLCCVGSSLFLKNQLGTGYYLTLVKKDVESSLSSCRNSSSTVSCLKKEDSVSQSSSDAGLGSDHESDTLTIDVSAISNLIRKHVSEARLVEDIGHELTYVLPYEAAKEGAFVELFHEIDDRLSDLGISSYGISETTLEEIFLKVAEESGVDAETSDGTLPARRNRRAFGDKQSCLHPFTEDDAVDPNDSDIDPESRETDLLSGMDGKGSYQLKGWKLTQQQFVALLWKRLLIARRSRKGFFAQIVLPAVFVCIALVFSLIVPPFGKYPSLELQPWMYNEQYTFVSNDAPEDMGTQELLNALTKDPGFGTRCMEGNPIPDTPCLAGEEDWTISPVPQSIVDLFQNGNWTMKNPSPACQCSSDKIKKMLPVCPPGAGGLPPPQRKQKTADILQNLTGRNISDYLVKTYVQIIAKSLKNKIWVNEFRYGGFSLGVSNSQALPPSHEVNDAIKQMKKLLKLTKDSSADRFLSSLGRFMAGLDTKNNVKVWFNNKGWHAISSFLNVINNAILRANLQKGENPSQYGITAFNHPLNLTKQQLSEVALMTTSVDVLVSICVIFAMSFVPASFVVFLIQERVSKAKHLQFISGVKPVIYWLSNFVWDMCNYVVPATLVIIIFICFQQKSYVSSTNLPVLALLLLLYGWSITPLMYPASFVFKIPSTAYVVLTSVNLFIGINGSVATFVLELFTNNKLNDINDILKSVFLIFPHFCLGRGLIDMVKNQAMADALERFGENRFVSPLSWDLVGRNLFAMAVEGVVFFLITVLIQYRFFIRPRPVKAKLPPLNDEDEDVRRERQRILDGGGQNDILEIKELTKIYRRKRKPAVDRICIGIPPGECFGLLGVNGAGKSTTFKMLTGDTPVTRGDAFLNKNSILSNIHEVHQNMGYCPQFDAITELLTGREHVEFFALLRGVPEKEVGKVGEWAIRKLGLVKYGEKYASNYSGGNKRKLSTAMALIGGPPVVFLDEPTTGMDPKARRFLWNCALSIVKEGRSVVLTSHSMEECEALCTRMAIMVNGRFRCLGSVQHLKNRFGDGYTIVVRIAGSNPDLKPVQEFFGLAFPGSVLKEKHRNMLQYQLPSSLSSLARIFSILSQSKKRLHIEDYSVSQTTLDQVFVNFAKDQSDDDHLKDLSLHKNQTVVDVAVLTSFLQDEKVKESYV
# Source text: Suitable cholesterol efflux assays are described in, e.g., Bielicki, J. K and Oda, M. N., Biochemistry, 41:2089-2096 (2002); Jia et al., Biochem. Biophys. Res. Common., 297:206-213 (2002). In some embodiments, a polypeptide known to mediate cholesterol efflux (e.g., helix 9/10 of Apo A-I) is used to screen for additional mediators of cholesterol efflux in a cell based assay. For example, cell lines in which cholesterol efflux can be enhanced using a cAMP analog that up-regulates ABCA1 protein expression (e.g., J774 macrophages) can conveniently be used to assess the ability of a polypeptide of the present invention to mediate cholesterol efflux. The cells are incubated with labeled cholesterol (e.g., [^3H]cholesterol) under conditions appropriate for cholesterol uptake by the cells. Thus, cAMP or cAMP analogs (e.g., CPT-cAMP) are incubated with the cells for a suitable time before the initiation of cellular cholesterol efflux, i.e., prior to contacting the cells with a test polypeptide. Measurement of labeled cholesterol appearing in the medium is used to determine the cholesterol efflux mediating activity of the test polypeptide.
# Aliphatic analogs of ATI-5261 lacking phenylalanine residues retained potent ABCA1 selective cholesterol efflux activity (FIG. 7). J774 macrophages were labeled (48 h) with [^3H]cholesterol and treated (18 h) with a cAMP analog to induce ABCA1 protein expression; cells incubated in the absence of cAMP (left bars) served as controls. […] Peptides were used at a concentration of 30 μg/ml, which was maximal for promoting cholesterol efflux activity. Panel B—Dependence of cholesterol efflux on the concentration of peptides. […] Results are expressed as the difference in cholesterol efflux (%/4 h) observed using cAMP treated vs. non-treated J774 cells. Values are means±SD, n=3.
# human plasma = assay: Cholesterol efflux activity of human plasma treated with lipid-free peptide (J774 cells); type: cell-based; conditions: human plasma with 300 μg/ml peptide 5 minutes (4° C.), diluted to 1%, cAMP treated J774 cells, vs vehicle-treated plasma
# Experimental: (§1) To test whether CS6253 exerts anti-atherogenic effects in a biological milieu, human plasma was exposed (5 min) to lipid-free peptide. Interactions of CS6253 with HDL and activity of plasma to stimulate cholesterol efflux was assessed, using J774 macrophages labeled with [^3H]cholesterol. Panel A—Cholesterol efflux activity of plasma treated with lipid-free peptides. Human plasma was incubated with 300 μg/ml peptides for 5 minutes (4° C.), diluted to 1% in serum-free RPMI-1640 culture medium and immediately added to [^3H]cholesterol-labeled J774 cells. […] Panel B—Induction of preβ HDL upon treatment of human plasma with CS6253. Plasma was exposed to a small amount of peptide relative to endogenous apoA-I (1:10 mole ratio, respectively) and formation of preβ HDL assessed by 2D non-denaturing gradient gel electrophoresis (NDGGE) and western blot analysis. […] This is consistent with no peptide being associated with the preβ HDL fraction, indicating the particles were authentic preβ particles composed on endogenous apoA-I.
# ABCA1 [2] = target: T2, ABCA1; assay: ABCA1-dependent [3H]cholesterol efflux from J774 macrophages with and without cAMP; type: cell-based; parameters: ABCA1-dependent cholesterol efflux: dose or concentration left out as unconfirmed
# HDL in human plasma = assay: preβ HDL formation in human plasma, 2D NDGGE and western blot
# Experimental: as §1
# [3] = cAMP treated J774 cells, increasing concentration of peptides, 4 h
Substance,ABCG1 mediated cholesterol efflux (ABCG1),peptide concentration at saturation in cholesterol efflux (ABCA1 [1]; [3]),capacity of peptide-treated plasma to stimulate cholesterol efflux via ABCA1 (human plasma),"ABCA1-dependent cholesterol efflux activity (ABCA1 [2]; J774 macrophages with/without cAMP, peptide 10 μg/ml)",association of peptide with HDL species in plasma (HDL in human plasma; antibody against CS6253),"preβ HDL formation (HDL in human plasma; peptide:endogenous apoA-I 1:10 mole ratio, apoA-I antibody)",cholesterol efflux activity compared with parent ATI-5261 (ABCA1 [1]; J774 cells with and without cAMP),"Km (cholesterol efflux potency) on molar basis (ABCA1 [1]; cAMP treated J774, lipid-free peptide, 4 h, Michaelis Menten equation)",Km for cholesterol efflux (ABCA1 [1]; [3]),"ABCA1-dependent cholesterol efflux (ABCA1 [2]; J774 with/without cAMP, acceptors lipid-free, 4 h)"
"ATI-5261: HDL mimetic peptide, parent peptide; triglyceride elevating and muscle toxic peptide used as positive control (EVRSKLEEWFAAFREFAEEFLARLKS) [reference compound]",poorly active,roughly 3 μg/ml,greater capacity to stimulate cholesterol efflux,overall greater efflux response,,,,,,
"EVCitSKLEEWLAALCitELAEELLARLKS (SEQ ID NO:2) (EV[Cit]SKLEEWLAAL[Cit]ELAEELLARLKS) [CS6253, citrulline form of LeuATI-5261, R3,14→Citrulline, 26-mer]",relatively poor activity,3 µg/mL,greater capacity to stimulate cholesterol efflux,,associated with α-HDL,increase in preβ HDL,identical to that observed using the parent ATI-5261 peptide,near apolipoproteins molar potency,high potency; also recorded: low Km,stimulated ABCA1-dependent cholesterol efflux similar to native apolipoproteins
